Source: publication PMC2910593 (PLoS Biology, 2010)
Where “and” joins values, the source holds several entries; their conditions need not be identical. Equal values may be shown once. Values belong to the molecule of their own block, whether it stands above or below them.

Experiments:
[1] = target: CaMKIIα/Ca^2+/CaM complex (human) (UniProt Q9UQM7); assay: AUC; sedimentation velocity of the CaMKII/Ca2+/CaM complexes, 4°C, 10 mM HEPES pH 7.5, 300 mM NaCl, 1 mM CaCl2, 5 mM DTT; heterodimer to heterotetramer, KD estimated from the proportions of the peaks
[2] = target: CaMKIIγ oligomerization domain (human); assay: crystal structure; isolated oligomerization domains of human CaMKIIγ (2.7 Å) and CaMKIIδ (2.8 Å)
[3] = target: CaMKIIδ/Ca^2+/CaM complex (human) (UniProt Q13557); assay: AUC; sedimentation velocity of the CaMKII/Ca2+/CaM complexes, 4°C, 10 mM HEPES pH 7.5, 300 mM NaCl, 1 mM CaCl2, 5 mM DTT; heterodimer to heterotetramer, KD estimated from the proportions of the peaks
[4] = target: CaMKIIα catalytic domain (human) (UniProt Q9UQM7); assay: ITC; VP-ITC, 10°C, 20 mM HEPES pH 7.5, 150 mM NaCl, 5 mM DTT, 1 mM CaCl2; Ca2+/CaM titrated into the kinase domains, or the peptide titrated into Ca2+/CaM; single binding site model
[5] = target: CaMKI catalytic domain (human) (UniProt Q8IU85); assay: as above
[6] = target: CaMKIIβ catalytic domain (human) (UniProt Q13554); assay: as above
[7] = target: CaMKIIγ catalytic and regulatory domain (human) (UniProt Q13555); assay: as above
[8] = target: CaMKIV catalytic domain (human) (UniProt Q16566); assay: as above
[9] = target: the molecule itself; assay: crystal structure; isolated oligomerization domains of human CaMKIIγ (2.7 Å) and CaMKIIδ (2.8 Å)

Chain of CaMKI catalytic domain (human) (Q8IU85 1-333): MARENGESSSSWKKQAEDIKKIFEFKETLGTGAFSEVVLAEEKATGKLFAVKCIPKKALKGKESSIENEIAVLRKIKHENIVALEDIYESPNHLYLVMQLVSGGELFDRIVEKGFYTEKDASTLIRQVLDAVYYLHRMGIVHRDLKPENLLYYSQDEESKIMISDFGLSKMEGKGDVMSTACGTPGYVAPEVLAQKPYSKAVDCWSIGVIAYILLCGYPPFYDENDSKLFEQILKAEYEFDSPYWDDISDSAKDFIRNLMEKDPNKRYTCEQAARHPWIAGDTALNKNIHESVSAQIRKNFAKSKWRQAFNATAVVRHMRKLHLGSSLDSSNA
Chain of CaMKIV catalytic domain (human) (Q16566 15-340): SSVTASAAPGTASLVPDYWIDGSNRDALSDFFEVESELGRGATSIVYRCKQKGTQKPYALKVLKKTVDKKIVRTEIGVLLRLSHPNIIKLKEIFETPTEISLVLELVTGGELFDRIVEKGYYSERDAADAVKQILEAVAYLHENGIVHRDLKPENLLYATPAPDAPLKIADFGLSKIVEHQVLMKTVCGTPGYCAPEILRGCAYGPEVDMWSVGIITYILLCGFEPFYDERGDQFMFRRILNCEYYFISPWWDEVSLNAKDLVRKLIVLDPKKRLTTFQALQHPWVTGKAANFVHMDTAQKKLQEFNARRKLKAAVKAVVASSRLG
Chain of CaMKIIβ catalytic domain (human) (Q13554 11-302): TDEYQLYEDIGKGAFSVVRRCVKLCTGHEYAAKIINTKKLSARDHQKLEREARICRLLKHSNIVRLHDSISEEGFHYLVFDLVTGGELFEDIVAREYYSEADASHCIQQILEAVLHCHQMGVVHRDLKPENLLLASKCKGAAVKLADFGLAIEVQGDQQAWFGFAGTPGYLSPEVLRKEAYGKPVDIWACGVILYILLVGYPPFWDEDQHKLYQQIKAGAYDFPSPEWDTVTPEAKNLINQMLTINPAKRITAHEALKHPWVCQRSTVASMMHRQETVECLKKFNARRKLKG
Chain of CaMKIIγ catalytic and regulatory domain (human) (Q13555 5-317): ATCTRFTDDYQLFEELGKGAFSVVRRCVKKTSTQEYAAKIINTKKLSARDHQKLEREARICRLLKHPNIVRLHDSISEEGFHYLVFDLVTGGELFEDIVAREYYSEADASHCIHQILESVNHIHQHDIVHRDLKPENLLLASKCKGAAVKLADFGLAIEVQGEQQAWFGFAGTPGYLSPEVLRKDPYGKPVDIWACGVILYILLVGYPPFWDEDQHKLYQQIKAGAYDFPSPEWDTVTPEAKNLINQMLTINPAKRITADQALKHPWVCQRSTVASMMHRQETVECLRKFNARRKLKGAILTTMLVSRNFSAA

- Kd [1]: 120 µM
Molecule: CaMKIIα/Ca^2+/CaM complex (from UniProt Q9UQM7 13-301; P0DP23 1-149)

- dH [4]: 12.1 kcal/mol
- stoichiometry N [4]: 0.863
- dH [5]: -5.8 kcal/mol and -5.1 kcal/mol
- stoichiometry N [5]: 0.93
- dH [6]: 8.9 kcal/mol
- stoichiometry N [6]: 0.922
- dH [7]: 8.6 kcal/mol
- stoichiometry N [7]: 0.981
- dH [8]: -10.2 kcal/mol
- stoichiometry N [8]: 0.83
Molecule: calmodulin (Ca^2+/CaM) (from UniProt P0DP23 1-149) (natural protein)

More lines, now with the values behind:

Molecule: CaMKIIγ oligomerization domain (domain or fragment)
- stoichiometry N [2]: 12

Molecule: CaMKIIδ/Ca^2+/CaM complex (from UniProt Q13557 11-335; P0DP23 1-149)
- Kd [3]: 50 µM

B1: CaMKIIδ oligomerization domain (domain or fragment, human, UniProt Q13557 334-475, looked up)
chain: SNTTIEDEDVKARKQEIIKVTEQLIEAINNGDFEAYTKICDPGLTAFEPEALGNLVEGMDFHRFYFENALSKSNKPIHTIILNPHVHLVGDDAACIAYIRLTQYMDGSGMPKTMQSEETRVWHRRDGKWQNVHFHRSGSPTV
- stoichiometry N [9]: 14
